Measured values reported in article PMC6615639, “A broadly neutralizing germline-like human monoclonal antibody against dengue virus envelope domain III” (PLoS Pathogens, 2019).

How the values were obtained:
[1] = biological target: T1, DENV-3 envelope protein domain III (DIII), fused with IgG1 Fc and a C-terminal Avi-tag (Dengue virus type 3, strain ; …, UniProt Q99D35); test: cell-based or functional assay
[2] = biological target: T2, DENV-4 envelope protein domain III (DIII), fused with IgG1 Fc and a C-terminal Avi-tag (Dengue virus type 4, strain ; …, UniProt P09866); test: cell-based or functional assay
[3] = biological target: T3, DENV-2 envelope protein domain III (DIII), fused with IgG1 Fc and a C-terminal Avi-tag (Dengue virus type 2, strain ; …); test: cell-based or functional assay
T3 chain: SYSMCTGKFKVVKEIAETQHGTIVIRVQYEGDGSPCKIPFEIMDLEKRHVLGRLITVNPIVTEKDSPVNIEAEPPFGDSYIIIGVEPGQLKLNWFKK

[4] = biological target: T4, DENV-1 envelope protein domain III (DIII), fused with IgG1 Fc and a C-terminal Avi-tag (Dengue virus type 1, strain ; …, UniProt B6DXD2); test: cell-based or functional assay
[5] = biological target: T1, DENV-3 envelope protein domain III …; test: SPR; settings: both partners purified
[6] = biological target: T2, DENV-4 envelope protein domain III …; test: SPR; settings: both partners purified
[7] = biological target: T3, DENV-2 envelope protein domain III …; test: SPR; settings: both partners purified
[8] = biological target: T4, DENV-1 envelope protein domain III …; test: SPR; settings: both partners purified

B1: m366.6 scFv-Fc (scFv, V domains shown)
VH: QLQLQESGGGLVQPGGSLRLSCAASGFTFSSHSMNWIRQAPGKRLEWVSSISSSSSYIYYADSVRGRFTISRDNAKNSLYLQMDSLRAEDTAVYYCARYMAGIWTFDIWGQGTMVTVSS
VL: SYELTQPPSVSVAPGKTASISCGGDNIGRKSVHWFQQKPGQAPVLVLYDDSDRPSGIPARFSGSNSGNTATLTISGVEAGDEADYYCQVWARSSDLPNWVFGGGTKLTVL
notes: also called mAb m366.6
other [1]: 0.85 µg/mL
other [2]: 0.36 µg/mL
other [3]: 2.4 µg/mL
other [4]: 22 µg/mL
Kd [5]: 0.27 nM
koff [5]: 0.00018 s⁻¹
kon [5]: 660000 M⁻¹ s⁻¹
Kd [6]: 1.9 nM
koff [6]: 0.00062 s⁻¹
kon [6]: 330000 M⁻¹ s⁻¹
Kd [7]: 0.29 nM
koff [7]: 0.00025 s⁻¹
kon [7]: 960000 M⁻¹ s⁻¹
Kd [8]: 0.78 nM
koff [8]: 0.00025 s⁻¹
kon [8]: 320000 M⁻¹ s⁻¹
